This is an account of results in patent US20260207704A1, “STAPLED PEPTIDES AND METHODS THEREOF” (priority 2022, published 2026).

*1 amine or outer side, *2 acyl side, *3 side chain or, on linkers, in order; H or OH if unused. Bridges are numbered along the chain shown (N, C = ends). Primed or numbered codes have the meaning given here. [ ]: non-standard residue; d: D form. B5(4) = 2-amino-2-(pent-4-en-1-yl)hept-6-enoic acid, stapled through each of its two olefin groups with other olefin-containing amino acid residues, O=C(C(CCCC=[*:3])(CCCC=[*:4])N[*:1])[*:2]; PyrS2″ = (S)-3-amino-1-((pent-4-en-1-yloxy)carbonyl)pyrrolidine-3-carboxylic acid (olefin stapling residue), C=CCCCOC(=O)N1CC[C@@](N[*:1])(C(=O)[*:2])C1; PyrS2(3) = (S)-3-amino-1-((pent-4-en-1-yloxy)carbonyl)pyrrolidine-3-carboxylic acid, olefin residue, C=CCCCOC(=O)N1CC[C@@](N[*:1])(C(=O)[*:2])C1; TriAzLys = (S)-2-amino-5-(1H-1,2,3-triazol-1-yl)pentanoic acid, stapled through triazole 4-position, O=C([C@H](CCCn1cc([*:3])nn1)N[*:1])[*:2]; PyrS2(5) = (S)-3-amino-1-((pent-4-en-1-yloxy)carbonyl)pyrrolidine-3-carboxylic acid, C=CCCCOC(=O)N1CC[C@@](N[*:1])(C(=O)[*:2])C1; B5″ = 2-amino-2-(pent-4-en-1-yl)hept-6-enoic acid (bis-olefin stapling residue), C=CCCCC(CCCC=C)(N[*:1])C(=O)[*:2]; B5(5) = 2-amino-2-(pent-4-en-1-yl)hept-6-enoic acid (two olefin arms), C=CCCCC(CCCC=C)(N[*:1])C(=O)[*:2]; B5(3) = 2-amino-2-(pent-4-en-1-yl)hept-6-enoic acid, two olefin arms, C=CCCCC(CCCC=C)(N[*:1])C(=O)[*:2]; TriAzLys″ = azidolysine residue closed into triazole staple, O=C([C@H](CCCCn1cc([*:3])nn1)N[*:1])[*:2]; 2F3MeF″ = aromatic residue, Cc1cccc(C[C@H](N[*:1])C(=O)[*:2])c1F; Phe(3-COOH) = N[C@@H](Cc1cccc(C(=O)O)c1)C(=O)O; 2F3MeF = Cc1cccc(C[C@H](N[*:1])C(=O)[*:2])c1F; Abu(4-yl) = O=C([C@H](CC[*:3])N[*:1])[*:2]; Bta = N[C@@H](Cc1csc2ccccc12)C(=O)O; αAllylPro = C=CC[C@@]1(C(=O)O)CCCN1; tBuAla = CC(C)(C)C[C@H](N)C(=O)O; Gly(cBu) = N[C@H](C(=O)O)C1CCC1; 3Thi = N[C@@H](Cc1ccsc1)C(=O)O; PyrS2(4) = not defined here; BztA″ = aromatic residue; CyLeu = not defined here; dGlnR = not defined here; GlnR = not defined here; sAla = not defined here; Cpg = not defined here; PL3 = not defined here; B5 = not defined here; Aib = CC(C)(N)C(=O)O Where only a bound is given, the exact number is not on record here.

In assay [1] the target is beta-catenin (human). As to the kind of experiment: cell-based or functional assay.
Assay [2] concerns the target beta-catenin (human). The assay can be described thus: fluorescence polarization. In general terms: Polarisation of emitted light reports the rotation of a fluorescent probe.

beta-catenin (human), sequence (B6V8E6 146-665 limits assumed): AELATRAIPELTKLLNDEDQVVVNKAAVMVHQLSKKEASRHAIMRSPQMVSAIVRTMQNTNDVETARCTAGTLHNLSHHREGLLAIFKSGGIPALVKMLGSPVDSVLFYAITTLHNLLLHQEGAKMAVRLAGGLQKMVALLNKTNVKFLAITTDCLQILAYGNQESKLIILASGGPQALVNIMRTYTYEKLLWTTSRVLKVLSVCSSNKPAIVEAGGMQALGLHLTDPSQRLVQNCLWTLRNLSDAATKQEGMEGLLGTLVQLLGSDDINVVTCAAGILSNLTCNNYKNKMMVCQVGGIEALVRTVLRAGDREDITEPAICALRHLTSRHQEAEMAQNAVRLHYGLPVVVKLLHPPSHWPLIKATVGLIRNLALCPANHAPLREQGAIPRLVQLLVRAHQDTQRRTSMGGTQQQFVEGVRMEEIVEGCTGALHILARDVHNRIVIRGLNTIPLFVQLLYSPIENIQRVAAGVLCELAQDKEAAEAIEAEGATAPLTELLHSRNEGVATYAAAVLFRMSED

B1: I-470 (peptide)
peptide: Ac-[αAllylPro]E[tBuAla][B5(5)]E[Phe(3-COOH)][Aib]AFK[PyrS2(5)][3Thi][Bta][GlnR]A-NH2
modifications: bridge 10-14; not fully specified (bridges); printed as Ac-PL3-Glu-Npg-B5-Glu-3COOHF-Aib-Ala-Phe-Lys*3-PyrS2-3Thi-BztA-GlnR*3-Ala-NH2; reading uncertain
The term IC50 denotes the concentration needed to halve the response being measured. B1: the NanoBRET Abs IC50 in assay [1] is more than 10000 nM. The molecule also had an IC50 in assay [2] of more than 1000 nM.

B2: I-16 (peptide)
peptide: Ac-[αAllylPro]DL[B5″]D[Phe(3-COOH)]AAF[GlnR][PyrS2″][3Thi][Bta]K-NH2
modifications: bridge 10-14; reading uncertain; also: PL3-B5 and PyrS2 links not placed, printed as Ac-PL3-Asp-Leu-B5-Asp-3COOHF-Ala-Ala-Phe-GlnR*3-PyrS2-3Thi-BztA-Lys*3-NH2
In turn, B2 showed a NanoBRET Abs IC50 (bin >3.0 uM) in assay [1] of less than 10000 nM. The IC50 in assay [2] was less than 50 nM.

B3: I-13 (peptide)
peptide: Ac-[αAllylPro]DL[B5(4)]D[Phe(3-COOH)]AAF[dGlnR][PyrS2″][3Thi][Bta]K-NH2
modifications: bridge 10-14; not fully specified (bridges); printed as Ac-PL3-Asp-Leu-B5-Asp-3COOHF-Ala-Ala-Phe-DGlnR*3-PyrS2-3Thi-BztA-Lys*3-NH2; reading uncertain; also: DGlnR*3 and Lys*3 marked *3
Consider B3, for which, in assay [1], the NanoBRET Abs IC50 (bin >3.0 uM) was less than 10000 nM. The same molecule showed an IC50 in assay [2] of less than 50 nM.

B4: I-10 (peptide)
peptide: Ac-[PL3]DL[B5]D[Phe(3-COOH)]AAFK[PyrS2(4)][3Thi][Bta][GlnR]-NH2
modifications: staple 1-4; bridge 10-14; not fully specified (residue 10); printed as Ac-PL3-Asp-Leu-B5-Asp-3COOHF-Ala-Ala-Phe-dLys*3-PyrS2-3Thi-BztA-GlnR*3-NH2; reading uncertain; also: PyrS2 tied into a staple, partner not placed
As for B4, the NanoBRET Abs IC50 in assay [1] is more than 10000 nM. The same molecule registered an IC50 in assay [2] of less than 50 nM.

B5: I-7 (peptide)
peptide: Ac-[αAllylPro]DL[B5(3)]DDKAF[GlnR][PyrS2(3)][3Thi][Bta]Q-NH2
modifications: bridge 7-10; not fully specified (bridges); printed as Ac-PL3-Asp-Leu-B5-Asp-Asp-Lys*3-Ala-Phe-GlnR*3-PyrS2-3Thi-BztA-Gln-NH2; reading uncertain
Molecule B5 displayed a NanoBRET Abs IC50 in assay [1] of more than 10000 nM. Further, the IC50 in assay [2] was less than 50 nM.

B6: I-5 (peptide)
peptide: XDLXDDAAFQXXXK
modifications: not fully specified; Ac-PL3-Asp-Leu-B5-Asp-Asp-Ala-Ala-Phe-DGlnR*3-PyrS2-3Thi-BztA-Lys*3-NH2
B6 registered a NanoBRET Abs IC50 in assay [1] of more than 10000 nM. Further, in assay [2], the IC50 was less than 50 nM.

B7: I-12 (peptide)
peptide: Ac-[αAllylPro]DL[B5″]D[Phe(3-COOH)]AAFK[PyrS2″][3Thi][Bta][GlnR]-NH2
modifications: bridge 10-14; not fully specified (bridges); printed as Ac-PL3-Asp-Leu-B5-Asp-3COOHF-Ala-Ala-Phe-Lys*3-PyrS2-3Thi-BztA-GlnR*3-NH2; reading uncertain; also: Lys*3 and GlnR*3 marked *3
For B7, the NanoBRET Abs IC50 (bin >3.0 uM) in assay [1] is less than 10000 nM. The molecule also displayed an IC50 in assay [2] of less than 50 nM.

B8: I-14 (peptide)
peptide: Ac-[αAllylPro]DL[B5(4)]D[Phe(3-COOH)]AAF[dGlnR][PyrS2(5)][3Thi][Bta]K-NH2
modifications: bridge 10-14; not fully specified (bridges); printed as Ac-PL3-Asp-Leu-B5-Asp-3COOHF-Ala-Ala-Phe-DGlnR*3-PyrS2-3Thi-BztA-Lys*3-NH2; reading uncertain; also: DGlnR10 and Lys14 marked *3
Molecule B8 registered a NanoBRET Abs IC50 (bin >3.0 uM) in assay [1] of less than 10000 nM. Moreover, the IC50 in assay [2] was less than 50 nM.

B9: I-19 (peptide)
peptide: Ac-[PL3]D[tBuAla][B5(4)]D[Phe(3-COOH)]AAF[TriAzLys″][PyrS2″][3Thi][Bta][sAla]-NH2
modifications: triazole 10-14; not fully specified (bridges); printed as Ac-PL3-Asp-Npg-B5-Asp-3COOHF-Ala-Ala-Phe-TriAzLys*3-PyrS2-3Thi-BztA-sAla*3-NH2; reading uncertain
B9 displayed a NanoBRET Abs IC50 (bin >3.0 uM) in assay [1] of less than 10000 nM. Further, the IC50 in assay [2] is less than 50 nM.

B10: I-11 (peptide)
peptide: Ac-[PL3]DL[B5]D[Phe(3-COOH)]AAFK[PyrS2(4)][3Thi][Bta][GlnR]-NH2
modifications: staple 1-4; bridge 10-14; reading uncertain; also: PyrS2 tied into a staple, partner not placed, printed as Ac-PL3-Asp-Leu-B5-Asp-3COOHF-Ala-Ala-Phe-Lys*3-PyrS2-3Thi-BztA-GlnR*3-NH2
As for B10, the NanoBRET Abs IC50 (bin >1.5 uM) in assay [1] was less than 3000 nM. The molecule further returned an IC50 in assay [2] of less than 50 nM.

B11: I-141 (peptide)
peptide: Ac-[αAllylPro]D[tBuAla][B5]D[Phe(3-COOH)][CyLeu]AFK[PyrS2″][2F3MeF″][BztA″][GlnR]LS-NH2
modifications: bridge 10-14; not fully specified (bridges); printed as Ac-PL3-Asp-Npg-B5-Asp-3COOHF-CyLeu-Ala-Phe-Lys*3-PyrS2-2F3MeF-BztA-GlnR*3-Leu-Ser-NH2; reading uncertain; also: Lys10 and GlnR14 marked *3
Molecule B11 yielded a NanoBRET Abs IC50 (bin >1.5 uM) in assay [1] of less than 3000 nM. The same molecule yielded an IC50 in assay [2] of less than 50 nM.

B12: I-8 (peptide)
peptide: XDLXDDQAFKXXXQ
modifications: not fully specified; Ac-PL3-Asp-Leu-B5-Asp-Asp-GlnR*3-Ala-Phe-Lys*3-PyrS2-3Thi-BztA-Gln-NH2
For the molecule B12, in assay [1], the NanoBRET Abs IC50 is more than 10000 nM. In addition, the IC50 in assay [2] is less than 50 nM.

B13: I-21 (peptide)
peptide: Ac-[PL3]D[tBuAla][B5(4)]D[Phe(3-COOH)]AAF[TriAzLys″][PyrS2″][2F3MeF][Bta][sAla]-NH2
modifications: triazole 10-14; not fully specified (bridges); printed as Ac-PL3-Asp-Npg-B5-Asp-3COOHF-Ala-Ala-Phe-TriAzLys*3-PyrS2-2F3MeF-BztA-sAla*3-NH2; reading uncertain
The molecule B13 showed a NanoBRET Abs IC50 (bin >1.5 uM) in assay [1] of less than 3000 nM. Further, in assay [2], the IC50 was less than 50 nM.

B14: I-139 (peptide)
peptide: Ac-[αAllylPro]D[tBuAla][B5]D[Phe(3-COOH)][Cpg]AFK[PyrS2″][2F3MeF″][BztA″][GlnR]LS-NH2
modifications: bridge 10-14; not fully specified (bridges); printed as Ac-PL3-Asp-Npg-B5-Asp-3COOHF-Cpg-Ala-Phe-Lys*3-PyrS2-2F3MeF-BztA-GlnR*3-Leu-Ser-NH2; reading uncertain; also: Lys10 and GlnR14 marked *3
B14: in assay [1], the NanoBRET Abs IC50 (bin >1.5 uM) is less than 3000 nM. Also, the IC50 in assay [2] is less than 50 nM.

B15: I-140 (peptide)
peptide: Ac-[αAllylPro]D[tBuAla][B5]D[Phe(3-COOH)][Gly(cBu)]AFK[PyrS2″][2F3MeF″][BztA″][GlnR]LS-NH2
modifications: bridge 10-14; not fully specified (bridges); printed as Ac-PL3-Asp-Npg-B5-Asp-3COOHF-Cbg-Ala-Phe-Lys*3-PyrS2-2F3MeF-BztA-GlnR*3-Leu-Ser-NH2; reading uncertain; also: Lys10 and GlnR14 marked *3
In the case of B15, in assay [1], the NanoBRET Abs IC50 is less than 1500 nM. In addition, in assay [2], the IC50 was less than 50 nM.

B16: I-138 (peptide)
peptide: Ac-[αAllylPro]D[tBuAla][B5]D[Phe(3-COOH)][Aib]AFK[PyrS2″][2F3MeF″][BztA″][GlnR]LS-NH2
modifications: bridge 10-14; not fully specified (bridges); printed as Ac-PL3-Asp-Npg-B5-Asp-3COOHF-Aib-Ala-Phe-Lys*3-PyrS2-2F3MeF-BztA-GlnR*3-Leu-Ser-NH2; reading uncertain; also: Lys10 and GlnR14 marked *3
Consider B16, for which the NanoBRET Abs IC50 (bin >1.5 uM) in assay [1] was less than 3000 nM. Also, the IC50 in assay [2] is less than 50 nM.

B17: I-15 (peptide)
peptide: Ac-[αAllylPro]DL[B5″]D[Phe(3-COOH)]AAF[GlnR][PyrS2″][3Thi][Bta]K-NH2
modifications: bridge 10-14; reading uncertain; also: PL3-B5 and PyrS2 links not placed, printed as Ac-PL3-Asp-Leu-B5-Asp-3COOHF-Ala-Ala-Phe-GlnR*3-PyrS2-3Thi-BztA-Lys*3-NH2
Consider B17, for which the NanoBRET Abs IC50 (bin >1.5 uM) in assay [1] was less than 3000 nM. The molecule also registered a concentration for half-maximal inhibition (IC50) in assay [2] of less than 50 nM.

B18: I-6 (peptide)
peptide: XDLXDDAAFQXXXK
modifications: not fully specified; Ac-PL3-Asp-Leu-B5-Asp-Asp-Ala-Ala-Phe-GlnR*3-PyrS2-3Thi-BztA-Lys*3-NH2
As to B18, the NanoBRET Abs IC50 in assay [1] is more than 10000 nM. Besides, in assay [2], the IC50 is less than 50 nM.
As for Ac-[αAllylPro]D[tBuAla][B5″]DDAAF[TriAzLys][PyrS2″][3Thi][Bta][Abu(4-yl)]-NH2 (triazole 10-14; also: PL3-B5 and PyrS2 links not placed) [I-17], the NanoBRET Abs IC50 in assay [1] is more than 10000 nM. Moreover, the IC50 in assay [2] is less than 50 nM.

B19: I-144 (peptide)
peptide: Ac-[αAllylPro]N[tBuAla][B5]D[Phe(3-COOH)][Aib]AFK[PyrS2″][2F3MeF″][BztA″][GlnR]LS-NH2
modifications: bridge 10-14; not fully specified (bridges); printed as Ac-PL3-Asn-Npg-B5-Asp-3COOHF-Aib-Ala-Phe-Lys*3-PyrS2-2F3MeF-BztA-GlnR*3-Leu-Ser-NH2; reading uncertain; also: Lys10 and GlnR14 marked *3
Take B19: the NanoBRET Abs IC50 (bin >3.0 uM) in assay [1] is less than 10000 nM. The same molecule came in with an IC50 in assay [2] of less than 50 nM.
